Measured values: patent publication US20050272077

Columns and labels:
[1] = biological target: T1, GST-ATF2 fusion protein (residues 1-505), P15336
T1 chain: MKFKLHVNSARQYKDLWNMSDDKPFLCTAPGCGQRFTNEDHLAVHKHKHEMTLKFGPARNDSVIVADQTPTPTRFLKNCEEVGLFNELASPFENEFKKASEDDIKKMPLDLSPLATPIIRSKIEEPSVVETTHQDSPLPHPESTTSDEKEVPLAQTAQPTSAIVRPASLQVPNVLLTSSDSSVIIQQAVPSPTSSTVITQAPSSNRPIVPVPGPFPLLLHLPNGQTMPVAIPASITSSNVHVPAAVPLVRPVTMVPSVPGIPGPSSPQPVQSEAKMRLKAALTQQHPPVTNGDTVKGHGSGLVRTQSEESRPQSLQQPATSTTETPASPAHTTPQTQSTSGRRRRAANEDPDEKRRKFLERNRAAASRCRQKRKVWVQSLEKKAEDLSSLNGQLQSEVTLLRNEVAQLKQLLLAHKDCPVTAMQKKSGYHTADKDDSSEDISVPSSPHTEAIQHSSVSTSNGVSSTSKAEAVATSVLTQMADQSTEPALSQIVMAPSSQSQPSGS

GST-MKK4, P45985 = biological target: T2, GST-MKK4, P45985
T2 chain: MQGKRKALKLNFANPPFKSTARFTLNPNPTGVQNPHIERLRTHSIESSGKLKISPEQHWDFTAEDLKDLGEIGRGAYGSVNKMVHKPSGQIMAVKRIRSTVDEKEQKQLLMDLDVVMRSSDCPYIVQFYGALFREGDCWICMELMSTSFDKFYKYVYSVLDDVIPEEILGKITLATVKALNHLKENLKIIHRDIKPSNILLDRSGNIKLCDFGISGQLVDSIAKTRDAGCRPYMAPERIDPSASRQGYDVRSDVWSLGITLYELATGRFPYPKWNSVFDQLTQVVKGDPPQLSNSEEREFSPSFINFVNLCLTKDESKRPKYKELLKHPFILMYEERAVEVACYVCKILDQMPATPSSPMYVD

[2] = biological target: mutated GST-JNK1 (Ala^183, Phe^185), P45983
[3] = biological target: GST-p38 MAP kinase (wild-type, TGY), Q16539
Sequence of GST-p38 MAP kinase (wild-type, TGY), Q16539 (Q16539 whole entry): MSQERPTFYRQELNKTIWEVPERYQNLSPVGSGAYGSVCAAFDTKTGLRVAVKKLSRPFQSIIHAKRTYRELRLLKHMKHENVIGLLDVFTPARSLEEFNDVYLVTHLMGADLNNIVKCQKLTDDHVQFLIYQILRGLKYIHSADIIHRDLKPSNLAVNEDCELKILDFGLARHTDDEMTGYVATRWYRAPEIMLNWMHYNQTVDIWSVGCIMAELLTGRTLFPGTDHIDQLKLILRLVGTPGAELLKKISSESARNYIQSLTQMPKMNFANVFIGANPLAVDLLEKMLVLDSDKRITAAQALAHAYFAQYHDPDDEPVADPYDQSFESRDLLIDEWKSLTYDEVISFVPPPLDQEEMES

Sequence of GST-ERK2 [GST: P08515] (P08515 whole entry, looked up): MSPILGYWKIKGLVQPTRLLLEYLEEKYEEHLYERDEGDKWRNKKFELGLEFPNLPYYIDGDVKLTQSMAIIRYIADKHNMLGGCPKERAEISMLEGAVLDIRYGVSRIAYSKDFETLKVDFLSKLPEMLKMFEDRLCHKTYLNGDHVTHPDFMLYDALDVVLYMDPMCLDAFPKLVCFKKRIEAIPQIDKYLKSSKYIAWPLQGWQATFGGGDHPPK

B1: 55 kD JNK2 protein kinase (protein)
chain: MSDSKCDSQFYSVQVADSTFTVLKRYQQLKPIGSGAQGIVCAAFDTVLGINVAVKKLSRPFQNQTHAKRAYRELVLLKCVNHKNIISLLNVFTPQKTLEEFQDVYLVMELMDANLCQVIHMELDHERMSYLLYQMLCGIKHLHSAGIIHRDLKPSNIVVKSDCTLKILDFGLARTACTNFMMTPYVVTRYYRAPEVILGMGYKENVDIWSVGCIMGELVKGCVIFQGTDHIDQWNKVIEQLGTPSAEFMKKLQPTVRNYVENRPKYPGIKFEELFPDWIFPSESERDKIKTSQARDLLSKMLVIDPDKRISVDEALRHPYITVWYDPAEAEAPPPQIYDAQLEEREHAIEEWKELIYKEVMDWEERSKNGVVKDQPSDAAVSSNATPSQSSSINDISSMSTEQTLASDTDSSLDASTGPLEGCR
- in-gel protein kinase assay with GST-ATF2 (residues 1-505) polymerized in the gel [1]: 46 kD and 55 kD protein kinases that phosphorylate ATF2 in extracts prepared from UV-irradiated cells. The 46 kD and 55 kD protein kinases were identified as JNK1 and JNK2, respectively

B2: GST-JNK1 (protein)
chain: MSRSKRDNNFYSVEIGDSTFTVLKRYQNLKPIGSGAQGIVCAAYDAILERNVAIKKLSRPFQNQTHAKRAYRELVLMKCVNHKNIIGLLNVFTPQKSLEEFQDVYIVMELMDANLCQVIQMELDHERMSYLLYQMLCGIKHLHSAGIIHRDLKPSNIVVKSDCTLKILDFGLARTAGTSFMMTPYVVTRYYRAPEVILGMGYKENVDLWSVGCIMGEMVCHKILFPGRDYIDQWNKVIEQLGTPCPEFMKKLQPTVRTYVENRPKYAGYSFEKLFPDVLFPADSEHNKLKASQARDLLSKMLVIDASKRISVDEALQHPYINVWYDPSEAEAPPPKIPDKQLDEREHTIEEWKELIYKEVMDLEERTKNGVIRGQPSPLAQVQQ
- phosphorylation of MKK4 (in vitro kinase assay, [γ-32P]ATP) (GST-MKK4, P45985): as was MKK4 incubated with JNK1 and p38

B3: GST-MKK4 (protein)
chain: MQGKRKALKLNFANPPFKSTARFTLNPNPTGVQNPHIERLRTHSIESSGKLKISPEQHWDFTAEDLKDLGEIGRGAYGSVNKMVHKPSGQIMAVKRIRSTVDEKEQKQLLMDLDVVMRSSDCPYIVQFYGALFREGDCWICMELMSTSFDKFYKYVYSVLDDVIPEEILGKITLATVKALNHLKENLKIIHRDIKPSNILLDRSGNIKLCDFGISGQLVDSIAKTRDAGCRPYMAPERIDPSASRQGYDVRSDVWSLGITLYELATGRFPYPKWNSVFDQLTQVVKGDPPQLSNSEEREFSPSFINFVNLCLTKDESKRPKYKELLKHPFILMYEERAVEVACYVCKILDQMPATPSSPMYVD
- phosphorylation of ATF2 in a coupled kinase assay (activation of JNK1) (GST-JNK1, P45983): ATF2 was phosphorylated in the presence of MKK4 and wild-type JNK1
- phosphorylation of the substrate protein (in vitro kinase assay, [γ-32P]ATP) (GST-JNK1, P45983): JNK1 and p38 were phosphorylated
- phosphorylation of ATF2 in a coupled kinase assay (activation of JNK1) [2]: MKK4 incubated with wild-type JNK1, but not mutated JNK1, resulted in increased phosphorylation of ATF2
- phosphorylation of the substrate protein (in vitro kinase assay, [γ-32P]ATP) [3]: JNK1 and p38 were phosphorylated

B4: MKK6 (protein)
chain: MSQSKGKKRNPGLKIPKEAFEQPQTSSTPPRDLDSKACISIGNQNFEVKADDLEPIMELGRGAYGVVEKMRHVPSGQIMAVKRIRATVNSQEQKRLLMDLDISMRTVDCPFTVTFYGALFREGDVWICMELMDTSLDKFYKQVIDKGQTIPEDILGKIAVSIVKALEHLHSKLSVIHRDVKPSNVLINALGQVKMCDFGISGYLVDSVAKTIDAGCKPYMAPERINPELNQKGYSVKSDIWSLGITMIELAILRFPYDSWGTPFQQLKQVVEEPSPQLPADKFSAEFVDFTSQCLKKNSKERPTYPELMQHPFFTLHESKGTDVASFVKLILGD
- phosphorylation of the substrate protein (in vitro kinase assay) (GST-JNK1, P45983): shown to phosphorylate p38 MAP kinase on Thr^180 and Tyr^182, but not JNK1 or ERK2
- phosphorylation of the substrate protein (in vitro kinase assay) (GST-ERK2 [GST: P08515]): shown to phosphorylate p38 MAP kinase on Thr^180 and Tyr^182, but not JNK1 or ERK2
- phosphorylation of the substrate protein (in vitro kinase assay) [3]: shown to phosphorylate p38 MAP kinase on Thr^180 and Tyr^182, but not JNK1 or ERK2
- specific activity relative to MKK3 [3]: The specific activity of MKK6 was approximately 300-fold greater than that of MKK3
